Data set [1] has as its target RlmCD WT (Streptococcus pneumoniae, UniProt Q97R12 1-543). The data set can be described thus: EMSA; 5 uM SAH; two shifted bands; EMSA: 20 mM Tris-HCl pH 8.0, 250 mM NaCl, 1 mM MgCl2, 0.5 uM FAM-RNA, 5 uM SAH, 0-5 uM protein, 37 C 30 min; 10% native PAGE on ice. To be noted: protein: recombinant; tags: 8xHis-SUMO removed by ULP1; label: 5'-FAM; 5' single strand with 3' hairpin. (A gel shift assay detects complexes by their altered migration in electrophoresis.)

Data set [2] addresses RlmCD F145A (Streptococcus pneumoniae, UniProt Q97R12 1-543, F145A). The data set can be described thus: EMSA; 5 uM SAH; almost no effect vs WT; EMSA: 20 mM Tris-HCl pH 8.0, 250 mM NaCl, 1 mM MgCl2, 0.5 uM FAM-RNA, 5 uM SAH, 0-5 uM protein, 37 C 30 min; 10% native PAGE on ice. Conditions: protein: recombinant; tags: 8xHis-SUMO removed by ULP1; label: 5'-FAM; 5' single strand with 3' hairpin.

For data set [3], the target named is RlmCD D381A (Streptococcus pneumoniae, UniProt Q97R12 1-543, D381A). The data set is described as follows: EMSA; 5 uM SAH; not severely affected vs WT; EMSA: 20 mM Tris-HCl pH 8.0, 250 mM NaCl, 1 mM MgCl2, 0.5 uM FAM-RNA, 5 uM SAH, 0-5 uM protein, 37 C 30 min; 10% native PAGE on ice. To be noted: protein: recombinant, tags: 8xHis-SUMO removed by ULP1, label: 5'-FAM.

Data set [4] has as its target RlmCD Q283A (Streptococcus pneumoniae, UniProt Q97R12 1-543, Q283A). The data set is described as above. Conditions: protein: recombinant, tags: 8xHis-SUMO removed by ULP1, label: 5'-FAM.
Data set [5] has as its target T1, RlmCD 1-454 E443Q (Streptococcus pneumoniae, UniProt Q97R12 1-454, E443Q). The data set is described as follows: X-ray crystallography; SAH (SAM added); covalent C408-U747; EMSA: 20 mM Tris-HCl pH 8.0, 250 mM NaCl, 1 mM MgCl2, 0.5 uM FAM-RNA, 5 uM SAH, 0-5 uM protein, 37 C 30 min; 10% native PAGE on ice. To be noted: protein: recombinant; tags: 8xHis-SUMO removed by ULP1; single strand.

The target of data set [6] is T1, RlmCD 1-454 E443Q. The data set can be described thus: X-ray crystallography; SAH (SAM added); covalent C408-U747; space group P1, two complexes per asymmetric unit; EMSA: 20 mM Tris-HCl pH 8.0, 250 mM NaCl, 1 mM MgCl2, 0.5 uM FAM-RNA, 5 uM SAH, 0-5 uM protein, 37 C 30 min; 10% native PAGE on ice. To be noted: protein: recombinant; tags: 8xHis-SUMO removed by ULP1; hairpin, 2 bp stem (743-754, 744-753).

The target of data set [7] is T1, RlmCD 1-454 E443Q. The data set is described as follows: X-ray crystallography; SAH (SAM added); covalent C408-U1939; 3.10 A; EMSA: 20 mM Tris-HCl pH 8.0, 250 mM NaCl, 1 mM MgCl2, 0.5 uM FAM-RNA, 5 uM SAH, 0-5 uM protein, 37 C 30 min; 10% native PAGE on ice. To be noted: protein: recombinant; tags: 8xHis-SUMO removed by ULP1; single strand.
Where [8] appears, read: 5' single strand with 3' hairpin.
The mark [9] stands for this setting: hairpin, 2 bp stem (743-754, 744-753).

For the molecule GCGAAAUUCCUUGUCGGGUAAGUUCCGACC (structured_RNA) [FAM-U1939 30-nt], the binding result in data set [1], in data set [2], in data set [3] (setting [8]) and in data set [4] (setting [8]) was “binds” in each case.
Consider CCGUUGAAAAGG (structured_RNA) [FAM-U747SL], for which the binding result in data set [3] (setting [9]) and in data set [4] (setting [9]) was “binds” throughout.
In the case of GUUGAAAA (ssRNA, m5 at U747 formed in crystal, covalent to C408) [U747L], in data set [5], the binding result is recorded as “binds”.
Regarding CCGUUGAAAAGG (structured_RNA, m5 at U747 formed in crystal, covalent to C408) [U747SL], in data set [6], the binding result is given as “binds”.
For AAAUUCCU (ssRNA, m5 at U1939 formed in crystal, covalent to C408) [U1939L], the binding result in data set [7] was “binds”.

The values are drawn from paper PMC6235398, “Unveiling the structural features that determine the dual methyltransferase activities of Streptococcus pneumoniae RlmCD”.
